This note sets out measurements from US20250304703A1 (AKESO BIOPHARMA, published 2025).

For experiment [1], the target named is T1, human IL-4RA-hFc (human, UniProt P24394 26-232).
T1 construct: mature; no linker is stated
T1 sequence (looked up): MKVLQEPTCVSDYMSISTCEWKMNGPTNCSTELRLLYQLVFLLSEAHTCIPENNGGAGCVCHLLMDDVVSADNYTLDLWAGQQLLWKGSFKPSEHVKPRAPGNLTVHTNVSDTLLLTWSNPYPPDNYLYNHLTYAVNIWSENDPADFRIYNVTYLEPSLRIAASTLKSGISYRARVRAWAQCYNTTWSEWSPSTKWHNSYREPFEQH
The experiment can be described thus: competitive ELISA, competitor IL4-N-His, coated IL-4RA-hFc, 4-parameter fit. The method, then:
(§1) The Elisa plates were coated with human IL-4RA-hFc and blocked before the target antibodies were added. […] After the plates were washed, mouse anti-His, HRP (purchased from CoWin Biosciences, Cat No. CW0285A) was added for incubation. The plates were subjected to another wash. A chromogenic reaction was performed by adding TMB (Neogen, 308177) and was then terminated. The Elisa plates were put into a microplate reader immediately, and the OD value of each well in the Elisa plates was read at 450 nm. The data were analyzed and processed by SoftMax Pro 6.2.1.
By 4-parameter logistic regression of absorbance vs. antibody concentration, the blocking EC₅₀ of the antibodies was calculated.

Experiment [2] has as its target T1, human IL-4RA-hFc. Briefly: competitive ELISA, competitor IL4-N-His (anti-His signal); antibody 3 ug/mL. The protocol: as §1
(In general: In an ELISA, binding on a coated surface is turned into a signal by an enzyme label.)

Experiment [3] deals with T1, human IL-4RA-hFc. Briefly: indirect ELISA, coated IL-4RA-hFc 1 ug/mL, 4-parameter fit. The protocol:
Procedures: The Elisa plates were coated with human IL-4RA-hFc or human IL-4RA-mFc and were incubated, and the target antibodies were added after blocking. […] The plates were incubated and washed before TMB (Neogen, 308177) was added for chromogenic reaction. At the end of the reaction, the absorbance at 450 nm was measured by a microplate reader. The data were analyzed and processed by SoftMax Pro 6.2.1.

In general, EC50 refers to the concentration at which the effect is half-maximal. Read a high EC50 as lower potency in that assay.

B1: anti-human IL-4RA antibody 13E5 (antibody, V domains shown)
VH: EVQLQQSGPELVKPGASVKISCKTSGYTFTEYTIHWVKQNHGKSLEWIGGINPNNGGTVYNQNFKGKATLTVDKSSSTAYMELRSLTSEDSAVYYCARVRRGMDYWGQGTSVTVSS
VL: DIVMTQSHKFMSTSVGDRVSITCKASQDVTTAVAWYQQKPGQSPKLLIYSASYRYTGVPDRFTGSGSGTDFTFTISSVQAEDLAVYYCQQHYSAPWTFGGGTNLEIK
notes: also called murine antibody 13E5; monoclonal antibody of hybridoma cell line LT008 (IL-4RA-13E5), CCTCC NO: C2018131
Turning to B1, the EC50 with human IL-4RA-hFc [1] came out at 3 nM; with human IL-4RA-hFc [3], 0.084 nM. Also, in the experiment with human IL-4RA-hFc [2], the “OD 450 nm” value turned out to be 0.053 OD.
